The text below walks through data of publication PMC5607582.

The target in the test is trimeric H5-S·Tag (ectodomain of H5 hemagglutinin of A/duck/Viet Nam/TG24-01/2005 (H5N1) fused to GCN4-pII and S·Tag) (influenza A virus A/duck/Viet Nam/TG24-01/2005 (H5N1) | not stated | bovine).

For the substance “S·Protein-GCN4 (S·Protein fused to the dimerization domain GCN4 wild-type) (from UniProt P61823 47-150)”, the hemagglutination titer (HAU) of plant extract after co-expression in plants is 2 HAU.

In the case of “S·Protein-TP (S·Protein of bovine ribonuclease A fused to the tailpiece of mouse IgM) (from UniProt P61823 47-150)”, the hemagglutination titer (HAU) of plant extract after co-expression in plants came out at 256 HAU.

Substance “S·Protein-pII (S·Protein fused to the trimerization domain GCN4-pII) (from UniProt P61823 47-150)” had a hemagglutination titer (HAU) of plant extract after co-expression in plants of 0 HAU.

With “wild-type S·Protein (bovine pancreatic ribonuclease A residues 21-124) (from UniProt P61823 47-150) (domain or fragment)”, the hemagglutination titer (HAU) of plant extract after co-expression in plants is 4 HAU.
